The text below walks through data of patent publication US20170015742A1 (published 2017).

The chains are these.
B1: CL-33675_GS_9E10.1 (bispecific antibody, human IgG1, kappa, L234A L235A)
heavy: EVTLRESGPALVKPTQTLTLTCTFSGFSLSTYGMGVGWIRQPPGKALEWLANIWWDDDKYYNPSLKNRLTISKDTSKNQVVLTMTNMDPVDTATYYCARIESSGPKYSFDYWGQGTMVTVSSGGGGSGGGGSEIQLVQSGSELKKPGASVKVSCKASGYTFTNYGMYWVKQAPGQGLEYMGWIDTETGRPTYADDFKGRFVFSLDTSVSTAYLQISSLKAEDTAVYFCARWSGDTTGIRGPWFAYWGQGTLVTVSSASTKGPSVFPLAPSSKSTSGGTAALGCLVKDYFPEPVTVSWNSGALTSGVHTFPAVLQSSGLYSLSSVVTVPSSSLGTQTYICNVNHKPSNTKVDKKVEPKSCDKTHTCPPCPAPEAAGGPSVFLFPPKPKDTLMISRTPEVTCVVVDVSHEDPEVKFNWYVDGVEVHNAKTKPREEQYNSTYRVVSVLTVLHQDWLNGKEYKCKVSNKALPAPIEKTISKAKGQPREPQVYTLPPSREEMTKNQVSLTCLVKGFYPSDIAVEWESNGQPENNYKTTPPVLDSDGSFFLYSKLTVDKSRWQQGNVFSCSVMHEALHNAYTQKSLSLSPGK
light: EIVLTQSPGTLSLSPGERATLSCRASSGSIWYSFVSWYQQKPGQAPRLLIYADDQRASGIPDRFSGSGSGTDFTLTISRLEPEDFAVYYCQSYGINIDVVFGGGTKVEIKGGSGGGGSGGDIRMTQSPSSLSASVGDRVTIECLASEDIYSDLAWYQQKPGKSPKLLIYNANGLQNGVPSRFSGSGSGTDYSLTISSLQPEDVATYFCQQYNYFPGTFGQGTKLEIKRTVAAPSVFIFPPSDEQLKSGTASVVCLLNNFYPREAKVQWKVDNALQSGNSQESVTEQDSKDSTYSLSSTLTLSKADYEKHKVYACEVTHQGLSSPVTKSFNRGEC
B2: 1B10.1_GS_CL-33675 (bispecific antibody, human IgG1, kappa, L234A L235A)
heavy: EVQLVESGGGLVQPGGSLRLSCAASGFSFSKYDMAWFRQAPGKGLEWVASITTSGVGTYYRDSVKGRFTVSRDNAKSTLYLQMNSLRAEDTAVYYCARGYGAMDAWGQGTTVTVSSGGGGSGGGGSEVTLRESGPALVKPTQTLTLTCTFSGFSLSTYGMGVGWIRQPPGKALEWLANIWWDDDKYYNPSLKNRLTISKDTSKNQVVLTMTNMDPVDTATYYCARIESSGPKYSFDYWGQGTMVTVSSASTKGPSVFPLAPSSKSTSGGTAALGCLVKDYFPEPVTVSWNSGALTSGVHTFPAVLQSSGLYSLSSVVTVPSSSLGTQTYICNVNHKPSNTKVDKKVEPKSCDKTHTCPPCPAPEAAGGPSVFLFPPKPKDTLMISRTPEVTCVVVDVSHEDPEVKFNWYVDGVEVHNAKTKPREEQYNSTYRVVSVLTVLHQDWLNGKEYKCKVSNKALPAPIEKTISKAKGQPREPQVYTLPPSREEMTKNQVSLTCLVKGFYPSDIAVEWESNGQPENNYKTTPPVLDSDGSFFLYSKLTVDKSRWQQGNVFSCSVMHEALHNAYTQKSLSLSPGK
light: DIQMTQSPSSLSASVGDRVTITCKASQDIDDYLSWYQQKPGKSPKLVIYAATRLADGVPSRFSGSGSGTDYTLTISSLQPEDFATYYCLQSSSTPWTFGGGTKVEIKGGSGGGGSGGEIVLTQSPGTLSLSPGERATLSCRASSGSIWYSFVSWYQQKPGQAPRLLIYADDQRASGIPDRFSGSGSGTDFTLTISRLEPEDFAVYYCQSYGINIDVVFGGGTKVEIKRTVAAPSVFIFPPSDEQLKSGTASVVCLLNNFYPREAKVQWKVDNALQSGNSQESVTEQDSKDSTYSLSSTLTLSKADYEKHKVYACEVTHQGLSSPVTKSFNRGEC
B3: 1E3.4_GS_CL-33675 (bispecific antibody, human IgG1, kappa, L234A L235A)
heavy: EIQLVQSGSELKKPGASVKVSCKASGYPFTNSGMYWVKQAPGQGLEYMGWINTEAGKPTYADDFKGRFVFSLDTSVSTAYLQISSLKAEDTAVYFCARWGYISDNSYGWFDYWGQGTLVTVSSGGGGSGGGGSEVTLRESGPALVKPTQTLTLTCTFSGFSLSTYGMGVGWIRQPPGKALEWLANIWWDDDKYYNPSLKNRLTISKDTSKNQVVLTMTNMDPVDTATYYCARIESSGPKYSFDYWGQGTMVTVSSASTKGPSVFPLAPSSKSTSGGTAALGCLVKDYFPEPVTVSWNSGALTSGVHTFPAVLQSSGLYSLSSVVTVPSSSLGTQTYICNVNHKPSNTKVDKKVEPKSCDKTHTCPPCPAPEAAGGPSVFLFPPKPKDTLMISRTPEVTCVVVDVSHEDPEVKFNWYVDGVEVHNAKTKPREEQYNSTYRVVSVLTVLHQDWLNGKEYKCKVSNKALPAPIEKTISKAKGQPREPQVYTLPPSREEMTKNQVSLTCLVKGFYPSDIAVEWESNGQPENNYKTTPPVLDSDGSFFLYSKLTVDKSRWQQGNVFSCSVMHEALHNAYTQKSLSLSPGK
light: ATQLTQSPSSLSASVGDRVTISCRASEGVYSYMHWYQQKPGKQPKLLIYKASNLASGVPSRFSGSGSGTDFTLTISSLQPEDFATYFCHQNWNDPLTFGQGTKLEIKGGSGGGGSGGEIVLTQSPGTLSLSPGERATLSCRASSGSIWYSFVSWYQQKPGQAPRLLIYADDQRASGIPDRFSGSGSGTDFTLTISRLEPEDFAVYYCQSYGINIDVVFGGGTKVEIKRTVAAPSVFIFPPSDEQLKSGTASVVCLLNNFYPREAKVQWKVDNALQSGNSQESVTEQDSKDSTYSLSSTLTLSKADYEKHKVYACEVTHQGLSSPVTKSFNRGEC
B4: 1E3.4_GS_9E8.4 (bispecific antibody, human IgG1, kappa, L234A L235A)
heavy: B3 heavy with S236I, P238T, K239T
light: ATQLTQSPSSLSASVGDRVTISCRASEGVYSYMHWYQQKPGKQPKLLIYKASNLASGVPSRFSGSGSGTDFTLTISSLQPEDFATYFCHQNWNDPLTFGQGTKLEIKGGSGGGGSGGEFVLTQSPGTLSLSPGERATLSCERSSGDIGDSYVSWYQQKPGQAPRLVIYADDQRPSGIPDRFSGSGSGTDFTLTISRLEPEDFAVYYCQSYDINIDIVFGGGTKVEIKRTVAAPSVFIFPPSDEQLKSGTASVVCLLNNFYPREAKVQWKVDNALQSGNSQESVTEQDSKDSTYSLSSTLTLSKADYEKHKVYACEVTHQGLSSPVTKSFNRGEC
B5: 9E10.1_GS_3E2.1 (bispecific antibody, human IgG1, kappa, L234A L235A)
heavy: EIQLVQSGSELKKPGASVKVSCKASGYTFTNYGMYWVKQAPGQGLEYMGWIDTETGRPTYADDFKGRFVFSLDTSVSTAYLQISSLKAEDTAVYFCARWSGDTTGIRGPWFAYWGQGTLVTVSSGGGGSGGGGSEVQLVQSGAEVKKPGSSVKVSCKASGYTFTESYMYWVKQAPGQGLELIGRIDPEDGSTDYVEKFKNKATLTADKSTSTAYMELSSLRSEDTAVYFCARFGARSYFYPMDAWGQGTTVTVSSASTKGPSVFPLAPSSKSTSGGTAALGCLVKDYFPEPVTVSWNSGALTSGVHTFPAVLQSSGLYSLSSVVTVPSSSLGTQTYICNVNHKPSNTKVDKKVEPKSCDKTHTCPPCPAPEAAGGPSVFLFPPKPKDTLMISRTPEVTCVVVDVSHEDPEVKFNWYVDGVEVHNAKTKPREEQYNSTYRVVSVLTVLHQDWLNGKEYKCKVSNKALPAPIEKTISKAKGQPREPQVYTLPPSREEMTKNQVSLTCLVKGFYPSDIAVEWESNGQPENNYKTTPPVLDSDGSFFLYSKLTVDKSRWQQGNVFSCSVMHEALHNAYTQKSLSLSPGK
light: DIRMTQSPSSLSASVGDRVTIECLASEDIYSDLAWYQQKPGKSPKLLIYNANGLQNGVPSRFSGSGSGTDYSLTISSLQPEDVATYFCQQYNYFPGTFGQGTKLEIKGGSGGGGSGGETVLTQSPATLSLSPGERATLSCRASESVSTLMHWYQQKPGQQPRLLIYGASNLESGVPARFSGSGSGTDFTLTISSLEPEDFAVYFCQQSWNDPWTFGGGTKVEIKRTVAAPSVFIFPPSDEQLKSGTASVVCLLNNFYPREAKVQWKVDNALQSGNSQESVTEQDSKDSTYSLSSTLTLSKADYEKHKVYACEVTHQGLSSPVTKSFNRGEC
B6: 9E10.6_GS_3E2.1 (bispecific antibody, human IgG1, kappa, L234A L235A)
heavy: EVQLVQSGAEVKKPGSSVKVSCKASGYTFTNYGMYWVRQAPGQGLEWMGWIDTETGRPTYADDFKGRFTFTADKSTSTAYMELSSLRSEDTAVYYCARWSGDTTGIRGPWFAYWGQGTLVTVSSGGGGSGGGGSEVQLVQSGAEVKKPGSSVKVSCKASGYTFTESYMYWVKQAPGQGLELIGRIDPEDGSTDYVEKFKNKATLTADKSTSTAYMELSSLRSEDTAVYFCARFGARSYFYPMDAWGQGTTVTVSSASTKGPSVFPLAPSSKSTSGGTAALGCLVKDYFPEPVTVSWNSGALTSGVHTFPAVLQSSGLYSLSSVVTVPSSSLGTQTYICNVNHKPSNTKVDKKVEPKSCDKTHTCPPCPAPEAAGGPSVFLFPPKPKDTLMISRTPEVTCVVVDVSHEDPEVKFNWYVDGVEVHNAKTKPREEQYNSTYRVVSVLTVLHQDWLNGKEYKCKVSNKALPAPIEKTISKAKGQPREPQVYTLPPSREEMTKNQVSLTCLVKGFYPSDIAVEWESNGQPENNYKTTPPVLDSDGSFFLYSKLTVDKSRWQQGNVFSCSVMHEALHNAYTQKSLSLSPGK
light: B5 light with E22T, S72T
B7: 1B10.1_GS_3E2.1 (bispecific antibody, human IgG1, kappa, L234A L235A)
heavy: EVQLVESGGGLVQPGGSLRLSCAASGFSFSKYDMAWFRQAPGKGLEWVASITTSGVGTYYRDSVKGRFTVSRDNAKSTLYLQMNSLRAEDTAVYYCARGYGAMDAWGQGTTVTVSSGGGGSGGGGSEVQLVQSGAEVKKPGSSVKVSCKASGYTFTESYMYWVKQAPGQGLELIGRIDPEDGSTDYVEKFKNKATLTADKSTSTAYMELSSLRSEDTAVYFCARFGARSYFYPMDAWGQGTTVTVSSASTKGPSVFPLAPSSKSTSGGTAALGCLVKDYFPEPVTVSWNSGALTSGVHTFPAVLQSSGLYSLSSVVTVPSSSLGTQTYICNVNHKPSNTKVDKKVEPKSCDKTHTCPPCPAPEAAGGPSVFLFPPKPKDTLMISRTPEVTCVVVDVSHEDPEVKFNWYVDGVEVHNAKTKPREEQYNSTYRVVSVLTVLHQDWLNGKEYKCKVSNKALPAPIEKTISKAKGQPREPQVYTLPPSREEMTKNQVSLTCLVKGFYPSDIAVEWESNGQPENNYKTTPPVLDSDGSFFLYSKLTVDKSRWQQGNVFSCSVMHEALHNAYTQKSLSLSPGK
light: DIQMTQSPSSLSASVGDRVTITCKASQDIDDYLSWYQQKPGKSPKLVIYAATRLADGVPSRFSGSGSGTDYTLTISSLQPEDFATYYCLQSSSTPWTFGGGTKVEIKGGSGGGGSGGETVLTQSPATLSLSPGERATLSCRASESVSTLMHWYQQKPGQQPRLLIYGASNLESGVPARFSGSGSGTDFTLTISSLEPEDFAVYFCQQSWNDPWTFGGGTKVEIKRTVAAPSVFIFPPSDEQLKSGTASVVCLLNNFYPREAKVQWKVDNALQSGNSQESVTEQDSKDSTYSLSSTLTLSKADYEKHKVYACEVTHQGLSSPVTKSFNRGEC

Positions count from the first letter of the chain named.

Chain of recombinant human PDGF-BB (P01127 82-190 limits assumed): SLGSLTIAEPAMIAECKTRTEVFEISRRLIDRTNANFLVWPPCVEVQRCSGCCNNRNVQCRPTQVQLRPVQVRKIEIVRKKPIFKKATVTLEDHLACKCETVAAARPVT
Chain of recombinant human VEGF165 (P15692 other isoform, or with tags, fused parts or gaps limits assumed): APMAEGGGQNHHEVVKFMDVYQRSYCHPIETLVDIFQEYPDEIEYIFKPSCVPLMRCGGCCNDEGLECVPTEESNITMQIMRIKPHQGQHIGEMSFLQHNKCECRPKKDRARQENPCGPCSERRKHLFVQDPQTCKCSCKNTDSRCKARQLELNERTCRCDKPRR

The first assay has as its target recombinant human VEGF165 (human, UniProt P15692 207-395). Put plainly: cell-based or functional assay.
In the case of B1, the “Potency IC50 (nM) HMVEC-d hVEGF165” value was 0.064 nM.

In the case of B2, the “Potency IC50 (nM) HMVEC-d hVEGF165” value amounted to 0.05 nM.

In the case of B3, the “Potency IC50 (nM) HMVEC-d hVEGF165” value worked out at 0.067 nM.

Take B4: the “Potency IC50 (nM) HMVEC-d hVEGF165” value was 0.092 nM.

In the case of B5, the “Potency IC50 (nM) HMVEC-d hVEGF165” value amounted to 0.054 nM.

For B6, the “Potency IC50 (nM) HMVEC-d hVEGF165” value came to 0.06 nM.

In the case of B7, the “Potency IC50 (nM) HMVEC-d hVEGF165” value came to 0.084 nM.

The next assay concerns the target recombinant human PDGF-BB (human, UniProt P01127 82-190). As to the kind of experiment: cell-based or functional assay.
On to B1, for which the “Potency IC50 (nM) NIH-3T3 hPDGF-BB” value turned out to be 0.031 nM.

As to B2, the “Potency IC50 (nM) NIH-3T3 hPDGF-BB” value was 0.037 nM.

Regarding B3, the “Potency IC50 (nM) NIH-3T3 hPDGF-BB” value was found to be 0.037 nM.

As to B4, the “Potency IC50 (nM) NIH-3T3 hPDGF-BB” value came out at 0.329 nM.

For B5, the “Potency IC50 (nM) NIH-3T3 hPDGF-BB” value is 5.72 nM.

Turning to B6, the “Potency IC50 (nM) NIH-3T3 hPDGF-BB” value was 1.32 nM.

For the molecule B7, the “Potency IC50 (nM) NIH-3T3 hPDGF-BB” value amounted to 1.54 nM.
